US20070020267A1
pIC50, pKd: −log10 of the molar value.

Key:
[1] = target: hVEGF (human) (UniProt P15692); assay: SPR; conditions: Fab
[2] = target: hVEGF (human) (UniProt P15692); assay: SPR; 25 C; conditions: Fab
[3] = target: hVEGF (human) (UniProt P15692); assay: SPR; 37 C; conditions: Fab
[4] = target: hVEGF (human) (UniProt P15692); assay: competition; 25 C; conditions: Fab
[5] = target: mVEGF (mouse) (UniProt Q00731); assay: competition; 25 C; conditions: Fab
[6] = target: T1, murine VEGF (mVEGF) (mouse) (UniProt Q00731); assay: BIAcore or solution binding ELISA, control Fab
T1 sequence (looked up): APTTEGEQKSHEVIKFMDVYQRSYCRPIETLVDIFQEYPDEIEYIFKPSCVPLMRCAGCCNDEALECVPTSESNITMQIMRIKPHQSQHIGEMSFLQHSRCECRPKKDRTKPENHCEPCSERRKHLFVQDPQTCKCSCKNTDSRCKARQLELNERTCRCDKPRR

Chain of Y0317 Fab (VH): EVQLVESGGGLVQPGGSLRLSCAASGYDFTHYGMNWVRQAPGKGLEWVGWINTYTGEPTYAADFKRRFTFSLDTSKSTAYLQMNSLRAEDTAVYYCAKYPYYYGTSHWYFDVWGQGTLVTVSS
Chain of Y0317 Fab (VL): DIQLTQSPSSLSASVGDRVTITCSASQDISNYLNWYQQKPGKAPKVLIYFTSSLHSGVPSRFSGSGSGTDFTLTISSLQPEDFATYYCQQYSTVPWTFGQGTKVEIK

pKd [1]	pKd [2]	pKd [3]	pIC50 [4]	pIC50 [5]	pKd [6]	Substance
8.54	8.54	7.89	8.96	–	–	Avastin
–	9.70	9.96	10.70	6.52	–	Y0317
–	–	–	–	–	6.46	Y0317 Fab
